For 167 variants, self-cleavage results are on record in the RNAGym collection of RNA variant scans (doi:10.7554/elife.80360).

First the molecules themselves.
B1: Twister Ribozyme (parent)
chain: AACACUGCCAAUGCCGGUCCCAAGCCCGGAUAAAAGUGGAGGGGGCGG

Variants of B1 are the subject of the series. Nature of the series: self-cleavage, relative activity (ratio to wild type); higher = more cleavage; co-transcriptional.
With A33U G38C, the self-cleavage worked out at 0.77.

In the case of A33U G38A, the self-cleavage amounted to 0.946. The same measure for A35C G38C: 0.921. The value for A35G G43A was 0.152. The same measure for A35C G43A: 0.235; for A35C G43C: 0.206. G36C C46A: the self-cleavage came to 0.367. G36C C46G: the self-cleavage is 0.45. In the case of G39A C46U, the self-cleavage is 0.445. For G39A C46A, the self-cleavage turned out to be 0.463. The value for G36U G42A was 0.123; that for G36U G42C was 0.16; that for G38U C46U was 0.864. The same measure for G38U C46G: 0.818; for U37C G48A: 0.639; for G36C G42C: 0.189.

On to G36C G42A, for which the self-cleavage turned out to be 0.134. The same measure for G38C C46U: 0.855; for A35U A40G: 0.133; for A35U A40U: 0.253. Consider G39A G41A, for which the self-cleavage was 0.153.

Regarding G39A G41U, the self-cleavage turned out to be 0.125. The same measure for G36U G48U: 0.454; for A34G A40C: 0.198. As for G38C G41U, the self-cleavage turned out to be 0.304.

Turning to G38C G41C, the self-cleavage was 0.181. In the case of G38C G41A, the self-cleavage was 0.295. The value for A34C A35C was 0.694.

In the case of G38U G44C, the self-cleavage was 0.829. In the case of G38U G44A, the self-cleavage amounted to 0.811. For the variant U37G G42A, the self-cleavage was determined as 0.171. With U37G G42U, the self-cleavage came to 0.163. Consider U37G G42C, for which the self-cleavage turned out to be 0.103. G36A G41C: the self-cleavage was 0.133. On to G36A G41A, for which the self-cleavage is 0.13. Consider A34U A40U, for which the self-cleavage was found to be 0.141. Consider A34U A40C, for which the self-cleavage turned out to be 0.137. The same measure for A34U A40G: 0.122; for A35G A40C: 0.142. On to G39A G44U, for which the self-cleavage came out at 0.322. The same measure for G39A G44C: 0.231; for U37A G43U: 0.186; for A35U G39C: 0.104.

In the case of G38A A40G, the self-cleavage was found to be 0.131. The same measure for G38A A40U: 0.118; for U37G G38C: 0.208. In the case of U37G G41U, the self-cleavage worked out at 0.145. Consider U37G G41C, for which the self-cleavage is 0.113. With U37G G41A, the self-cleavage is 0.209.

On to U37C G42C, for which the self-cleavage turned out to be 0.196.

Regarding U37C G42U, the self-cleavage was 0.127. In the case of U37C G42A, the self-cleavage is 0.105. The value for G38U G41U was 0.196.

Consider G38U G41C, for which the self-cleavage was found to be 0.149. As for G38U G41A, the self-cleavage is 0.162.

Turning to A34C G36A, the self-cleavage was 0.0949. Regarding A34C G36U, the self-cleavage was found to be 0.084. As to A34C G36C, the self-cleavage worked out at 0.104. For the variant U37A G48A, the self-cleavage is 0.797. Take U37A G48C: the self-cleavage was 0.865. The same measure for A34U G38A: 0.654; for A34U G38C: 0.638.

For the variant A33U G39A, the self-cleavage was determined as 0.512.

With A33U G39C, the self-cleavage stood at 0.0973. Regarding A33U G39U, the self-cleavage was found to be 0.162.

On to A35C G36C, for which the self-cleavage was 0.382.

Consider A35U G41U, for which the self-cleavage was determined as 0.693.

As to A35U G41C, the self-cleavage is 0.206. The value for A35G G41U was 0.283; that for A35G G41C was 0.143; that for A34C A40C was 0.122. A34C A40U: the self-cleavage amounted to 0.0943. For the variant G38C G39A, the self-cleavage is 0.243. In the case of A34G G36C, the self-cleavage turned out to be 0.179. The same measure for U37A G38A: 0.821; for U37A G38C: 0.551; for U37A G38U: 0.38. The same measure for U37C G38A: 0.166; for U37C G45C: 0.26; for U37C G45A: 0.691. The value for A35U G45U was 0.812. For A35U G45C, the self-cleavage was 0.723. Consider G36U A40C, for which the self-cleavage was found to be 0.122. The value for G36U A40U was 0.141. The same measure for A34U G44U: 0.771; for A35G G38C: 0.632; for A35U G44A: 0.843. The value for G36C G47A was 0.183; that for A33U G36C was 0.174; that for G38A G42A was 0.176.

With G38A G42C, the self-cleavage was 0.247. Turning to A35G U37A, the self-cleavage amounted to 0.574. Turning to A35G G39C, the self-cleavage worked out at 0.178. Turning to G36C G38A, the self-cleavage was found to be 0.459. In the case of G36C G38C, the self-cleavage worked out at 0.217. The same measure for A34G U37C: 0.0836. The value for A34G U37G was 0.314; that for G36C A40U was 0.149; that for G38C A40C was 0.134. The value for G38C A40G was 0.134; that for A33U was 0.998. As to A35U G38U, the self-cleavage worked out at 0.942. The value for A35U G38A was 0.925; that for G36U G44C was 0.372. On to G36U G44A, for which the self-cleavage came out at 0.717.

As to G36U G44U, the self-cleavage was 0.355. The value for U37G G48U was 0.856; that for G38C G48A was 0.974; that for G38C G48C was 0.977. For U37A C46G, the self-cleavage turned out to be 0.748. Turning to U37A C46U, the self-cleavage is 0.886. With G38A G47U, the self-cleavage stood at 0.814. In the case of G38A G47C, the self-cleavage was determined as 0.522. For A34U G42A, the self-cleavage came to 0.169. For the variant A34U G42U, the self-cleavage was 0.145. The value for A34U G42C was 0.217; that for A33U G45U was 0.843; that for A33U G45A was 0.884. As for A33U G42U, the self-cleavage worked out at 0.244. The same measure for A33U G42C: 0.323. In the case of A33U G42A, the self-cleavage was 0.283. The value for A34G G39A was 0.133. For the variant A34C G47C, the self-cleavage came out at 0.177. On to A35U G36U, for which the self-cleavage came to 0.472. The value for A35U G47C was 0.694; that for A34G G48A was 0.645. On to A34G G48C, for which the self-cleavage is 0.791. Consider G36U C46G, for which the self-cleavage was 0.313.

With G36U C46A, the self-cleavage turned out to be 0.31. The value for G36U C46U was 0.408; that for G39A G45A was 0.418; that for A33G G47A was 0.75. The value for A33G G47U was 0.927; that for G36A G43C was 0.152; that for A34G G42U was 0.131. For the variant G36U G38U, the self-cleavage is 0.167. With G36U G38A, the self-cleavage amounted to 0.452. Turning to G36U G39A, the self-cleavage was 0.172. The same measure for G36U G39U: 0.147; for G36U G39C: 0.15; for U37G A40G: 0.155. In the case of A34U G43C, the self-cleavage came out at 0.186.

Turning to A34U G43U, the self-cleavage amounted to 0.193. For the variant G38U G42A, the self-cleavage stood at 0.129. On to G38U G42U, for which the self-cleavage is 0.12. In the case of G38U G42C, the self-cleavage amounted to 0.177. As to A35G G45A, the self-cleavage stood at 0.889. For the variant A35G G45U, the self-cleavage is 0.659. The value for G36A G42C was 0.168; that for G36A G42U was 0.128. The same measure for G38A G44U: 0.846; for G38A G44A: 0.897; for G38A G48U: 1.1. The same measure for G36A C46G: 0.7; for G36A C46U: 0.766; for A35C G44A: 0.87. Consider A35C G44U, for which the self-cleavage was 0.976. The same measure for A34U U37A: 0.368; for A34U U37C: 0.155. The value for A34G G41C was 0.12; that for U37G G47C was 0.306; that for U37G G47A was 0.673. The same measure for G36A G38U: 0.193. Regarding G36A G38A, the self-cleavage was found to be 0.359. A35U: the self-cleavage stood at 0.969. The value for A35G was 0.864; that for A35C was 0.962.
